Experimental data from the supplement of paper PMC9170038.

System: K4 kissing-loop RNA reporter
Assay: apparent KD of K4 kissing-loop reporter; higher = weaker reporter binding
Settings: Eterna round: R107
Experimental: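 RNA-MaP round R107: designed RNA switches with theophylline, tryptophan, arginine or FMN aptamers are transcribed on-chip within common flanks. They are titrated with a labelled K4 kissing-loop RNA reporter in RNA-MaP buffer (100 mM Tris pH 7.5, 80 mM KCl, 4 mM MgCl2), without ligand or with the indicated ligand. Median apparent KD per design.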

[1] = input ligand: theophylline 20 uM
[2] = input ligand: tryptophan 2.4 mM
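Further: bound reporter read as fluorescence of individual clusters on recovered sequencing chips by microscopy, with normalized cluster intensities fitted with a binding model.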

| Sequence | apparent KD of K4 kissing-loop reporter (input ligand: FMN 200 uM) [nM] | apparent KD of K4 kissing-loop reporter (input ligand: arginine 13.2 mM) [nM] | apparent KD of K4 kissing-loop reporter (input ligand: none) [nM] | apparent KD of K4 kissing-loop reporter [1] [nM] | apparent KD of K4 kissing-loop reporter [2] [nM] |
| --- | --- | --- | --- | --- | --- |
| UGGCGUAGAACCGCCGAAUCGCUGUGAGAAGGAGCGGUAAAAUUGCCAGGUAGGUCGCUCACAGCCUCACAGUGAUGUUGUGGGA [Cequralaza] | 758 | 105 | 117 | 290 | 212 |
| UGGGAUGUUAAAGGAUAUAGCAAGUGAUAUAAGAAAGUGAGUGAUGUUGAUGUAGGUGAUGAUAUGUUAGAAGGUUAACAAAACG [abcdefg] | 350 | 217 | 356 | 294 | 257 |
| UGUAAGCGCGUAGAUACCAGCAAACAAAGAGUGAUGUUCAGAUUAAGGAAAAGAAAGUAAUGCCCUUGGCAGCUAAUCAUAAGCG [Theophylline B Exclusion; Euphoria Solution] | 419 | 409 | 354 | 497 | 319 |
| UGUAAUGAGUGAUGUUCAUGUAGUAAGGAUACCAGUAAUUCAAAAUGCCCUUGGCAGCUUAGUUCUAUCUAUAGUUGGGUAGUGG [Theophilline A V4 (+5U)] | 162 | 209 | 205 | 206 | 123 |
| UGUACCGAGACAGGAUAUGUCGUCGAAAGACGAAAUGGAGUGAUGUUCCUUAAACUGCGAAAGCAGACAGAAGGGUCUUGGUACU [FmnBS 29 A10+U76] | 132 | 172 | 163 | 165 | 176 |
| UGUACCGAGGCAGGAUAUGUCGUCGAAAGACGAAAUGGAGUGAUGUUCCUUAAACUGCGAAAGCAGACAGAAGGGUCUUGGUACU [FmnBS 29 G10+U76] | 132 | 178 | 181 | 167 | 171 |
| UGUACCGAGUCAGGAUAUGGCGUCGAAAGACGAAUCCUAGUGAUGUUAGGGAUCUGCGAAAGCAGUCCAGAAGGGACUUGGUACU [FmnBS 26 #SwitchBubble #StaticStem #DoubleMagnetSystem] | 275 | 340 | 357 | 389 | 373 |
| UGUACCGAGUUAGGAUAUGUCGUCGAAAGACGAAAUGGAGUGAUGUUCCUUAAACUGCGAAAGCAGACAGAAGGAACUUGGUACU [FmnBS 29 U11+A75] | 190 | 627 | 544 | 546 | 476 |
| UGUAUGUGAUGUGAUACCAGUGAAGAGCCAGUGAUGUUGGUAGAACUGGUAUAUAAAUAACACCCUUGGCAGCACAGUCACGUAC [whbob_Ex_Theo_B_sa100] | 305 | 241 | 297 | 279 | 242 |
| UGUAUGUGAUUUGAUACCAGACAAGCAGGUGUGACAAGAGUGAUGUUCUUGAUGGUUUGGGUCCCUUGGCAGCAAAUCGCAUACU [KL-SSTheoB16] | 194 | 145 | 178 | 141 | 154 |
| UGUAUGUGAUUUGAUACCAGACCAGGUGGAGGAAUCUGAGUGAUGUUCAGGUAGGUUUGGGUCCCUUGGCAGCAAAUCGCAUACU [KL-SSTheoB18] | 173 | 136 | 149 | 176 | 158 |
| UGUAUGUGUCAGCGAGUGAUGUUCGACGAUACCAGACUCGAUAGAGUCCCUUGGCAGCGUAAUGCAUGCCAAACUGGCACAUACU [#SwitchBubble 13 #K4Early] | 657 | 532 | 682 | 594 | 600 |
| UGUCAUGGAAACAUGAACGUUAAAAUAAAUCGAGGACCGGUACGGCCGCCACUCGUAUAGCGGUCAGUGAUGUUGACUGUAAUAA [KL-SSTryp-A form2 sub10] | 101 | 121 | 110 | 116 | 94.3 |
| UGUCAUUGGUCGGCCGCCACUAGGACCGGGAUUUUUCUAGUGAUGUUAGUUUGGUCGGCCGCCACUAGGACCGGGACCGAUGACU [KL-SSTryp-B13 #DoubleAptamer] | 638 | 345 | 644 | 453 | 86.8 |
| UGUCAUUGGUCGGCCGCCACUAGGACCGGGUAUAACCUAGUGAUGUUAGUAAAUACGGCCGCCACUAGGACCGGGACCGAUGACU [KL-SSTryp-B18 #DoubleAptamer] | 415 | 296 | 583 | 471 | 102 |
| UGUCAUUGGUCGGCCGCCACUAGGACCGGGUUUUACCUAGUGAUGUUAGUAUAAACGGCCGCCACUAGGACCGGGACCGAUGACU [KL-SSTryp-B24 #DoubleAptamer] | 846 | 447 | 547 | 434 | 122 |
| UGUCAUUGGUCGGCCGCCACUAUAAUAAAAGAGUGAUGUUCUAAAAGACGGACAAAAGUCUGUCAUAGGACCGGGACCGAUGACU [TrypBS 25 #SwitchBubble #StaticStem] | 822 | 430 | 589 | 131 | 616 |
| UGUCAUUGGUCGGCCGCCACUUCAUAAAGAGUGAUGUUCUAAAAGACGGAUCGAAAGAUCUGUCGAAGGACCGGGACCGAUGACU [TrypBS 18 #SwitchBubble #StaticStem] | 1410 | 641 | 1200 | 915 | 279 |
| UGUCAUUGGUCGGCCGCCACUUCAUAAAGAGUGAUGUUCUGAAAGACGGAUCGAAAGAUCUGUCGAAGGACCGGGACCGAUGACU [FiskerMod 1 - Jieux - Same State - Tryptophan B] | 1160 | 1200 | 2080 | 1430 | 236 |
| UGUCAUUGGUCGGCCGCCACUUCAUAAAGAGUGAUGUUCUUAAAGACGGAUCGAAAGAUCUGUCGAAGGACCGGGACCGAUGACU [FiskerMod 8 - Jieux - Same State - Tryptophan B] | 1330 | 1080 | 1500 | 927 | 196 |
| UGUCAUUGGUCGGCCGCCACUUCAUGUAGAGUGAUGUUCUGUAAGACGGAUCGAAAGAUCUGUCGAAGGACCGGGACCGAUGACU [FiskerMod 13 - Jieux - Same State - Tryptophan B] | 1090 | 303 | 855 | 868 | 326 |
